Test results taken from patent publication US10543284B2, “Anti-c-Met antibody and anti-c-Met antibody-cytotoxic drug conjugate and pharmaceutical use thereof” (Suzhou Suncadia Biopharmaceuticals Co., Ltd., priority 2015, dated 2020).

Test system: human gastric cancer MKN45 cell model
Experiment: MKN45 subcutaneous xenograft in BALB/c nude mice (Example 10)
Format: in vivo
Details: 5 mg/kg antibody, terminated at day 25
Protocol: The human gastric cancer MKN45 cell model, obtained by subcutaneous xenograft into BALB/c nude mice, was used to evaluate the antitumor activity of the antibodies.
MKN45 cells were cultured in a monolayer in RPMI-1640 medium (10%/FBS) at 37° C. in 5% CO2. The cells were counted and collected during the logarithmic phase. The cells were resuspended in PBS to an appropriate concentration, and 0.1 ml 3×10^6 cells were subcutaneously injected into the right wing of mice (BALB/c nude mouse, female, 10-week old, 22-28 g, from Shanghai SLAC experimental animal ltd. Licence No. 2007000548777; Environment: SPF grade). When the tumors' average volume reached 114 mm^3, the tumors' weights and volumes were measured, and mice were then separated into groups for treatment. The control group was treated with PBS, and the antibody therapy group was treated with 5 mg/kg antibody of the invention, and the frequency was once a week and twice per time. The tumors' volumes and weights were measured twice a week, and the experiment was terminated at day 25. The formula for calculating tumor size was: tumor volume (mm^3)=0.5×(tumor length×tumor diameter^2).

B1: Ab-9: humanized anti c-Met antibody: heavy chain sequence of SEQ ID NO: 23 and light chain sequence of SEQ ID NO: 26 (antibody)
heavy: QVTLKESGPVLVKPTETLTLTCTVSGFSLPNYGVHWVRQPPGKALEWLAVIWSGGSTNYAAAFVSRLRISKDTSKSQVVFTMNNMDPVDTATYYCARNHDNPYNYAMDYWGQGTTVTVSSASTKGPSVFPLAPCSRSTSESTAALGCLVKDYFPEPVTVSWNSGALTSGVHTFPAVLQSSGLYSLSSVVTVPSSNFGTQTYTCNVDHKPSNTKVDKTVERKCCVECPPCPAPPVAGPSVFLFPPKPKDTLMISRTPEVTCVVVDVSHEDPEVQFNWYVDGVEVHNAKTKPREEQFNSTFRVVSVLTVVHQDWLNGKEYKCKVSNKGLPAPIEKTISKTKGQPREPQVYTLPPSREEMTKNQVSLTCLVKGFYPSDIAVEWESNGQPENNYKTTPPMLDSDGSFFLYSKLTVDKSRWQQGNVFSCSVMHEALHNHYTQKSLSLSPGK
light: DIVLTQSPASLAVSPGQRATITCRANKSVSTSTYNYLHWYQQKPGQPPKLLIYLASNLASGVPARFSGSGSGTDFTLTINPVEANDTANYYCQHSRDLPPTFGQGTKLEIKRTVAAPSVFIFPPSDEQLKSGTASVVCLLNNFYPREAKVQWKVDNALQSGNSQESVTEQDSKDSTYSLSSTLTLSKADYEKHKVYACEVTHQGLSSPVTKSFNRGEC
modifications: Ab-9 heavy chain; Ab-9 light chain
Q: For B1, which inhibition rate is on record?
A: 56%
